Laboratory results published in PMC5006590.

Assay: pseudovirus neutralisation, TZM-bl
Settings: glycan lost; control: wild type

Substance | other: neutralisation sensitivity, other: ID50 (reciprocal plasma dilution)
HIV-1 CAP239.G3 Env: N332A | decreases, 204.60 vs 1096.00
HIV-1 25711-2.4 Env: N332A | decreases, 357.36 vs 1822.04
HIV-1 25711-2.4 Env: N160A | no change, 1484.35 vs 1822.04
HIV-1 CAP239.G3 Env: N160A | increases, 4184.00 vs 1096.00, Fold decrease in ID50 0.26
HIV-1 25711-2.4 Env: N301A | decreases, 749.81 vs 1822.04
